Laboratory results taken from IntAct's records for PubMed 31515488.

B1: F-box/WD repeat-containing protein 1A (Homo sapiens), Q9Y297 (parent)
chain: MDPAEAVLQEKALKFMCSMPRSLWLGCSSLADSMPSLRCLYNPGTGALTAFQNSSEREDCNNGEPPRKIIPEKNSLRQTYNSCARLCLNQETVCLASTAMKTENCVAKTKLANGTSSMIVPKQRKLSASYEKEKELCVKYFEQWSESDQVEFVEHLISQMCHYQHGHINSYLKPMLQRDFITALPARGLDHIAENILSYLDAKSLCAAELVCKEWYRVTSDGMLWKKLIERMVRTDSLWRGLAERRGWGQYLFKNKPPDGNAPPNSFYRALYPKIIQDIETIESNWRCGRHSLQRIHCRSETSKGVYCLQYDDQKIVSGLRDNTIKIWDKNTLECKRILTGHTGSVLCLQYDERVIITGSSDSTVRVWDVNTGEMLNTLIHHCEAVLHLRFNNGMMVTCSKDRSIAVWDMASPTDITLRRVLVGHRAAVNVVDFDDKYIVSASGDRTIKVWNTSTCEFVRTLNGHKRGIACLQYRDRLVVSGSSDNTIRLWDIECGACLRVLEGHEELVRCIRFDNKRIVSGAYDGKIKVWDLVAALDPRAPAGTLCLRTLVEHSGRVFRLQFDEFQIVSSSHDDTILIWDFLNDPAAQAEPPRSPSRTYTYISR
partner: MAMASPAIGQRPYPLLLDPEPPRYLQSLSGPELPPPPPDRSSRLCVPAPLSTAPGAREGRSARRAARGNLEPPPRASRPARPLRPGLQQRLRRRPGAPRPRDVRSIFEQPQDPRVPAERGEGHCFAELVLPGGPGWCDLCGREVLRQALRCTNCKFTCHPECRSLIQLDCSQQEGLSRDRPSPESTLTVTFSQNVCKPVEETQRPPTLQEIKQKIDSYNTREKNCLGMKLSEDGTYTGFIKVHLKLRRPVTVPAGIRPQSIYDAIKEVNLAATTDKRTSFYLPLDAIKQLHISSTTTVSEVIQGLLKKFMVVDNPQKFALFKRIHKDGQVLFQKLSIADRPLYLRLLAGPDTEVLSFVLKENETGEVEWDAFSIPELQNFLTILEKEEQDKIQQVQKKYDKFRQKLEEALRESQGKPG
B2: Isoform 1 of Destrin (Homo sapiens), P60981-1 (parent)
chain: MASGVQVADEVCRIFYDMKVRKCSTPEEIKKRKKAVIFCLSADKKCIIVEEGKEILVGDVGVTITDPFKHFVGMLPEKDCRYALYDASFETKESRKEELMFFLWAPELAPLKSKMIYASSKDAIKKKFQGIKHECQANGPEDLNRACIAEKLGGSLIVAFEGCPV
B3: Inositol monophosphatase 1 (Homo sapiens), P29218-1 (parent)
chain: MADPWQECMDYAVTLARQAGEVVCEAIKNEMNVMLKSSPVDLVTATDQKVEKMLISSIKEKYPSHSFIGEESVAAGEKSILTDNPTWIIDPIDGTTNFVHRFPFVAVSIGFAVNKKIEFGVVYSCVEGKMYTARKGKGAFCNGQKLQVSQQEDITKSLLVTELGSSRTPETVRMVLSNMEKLFCIPVHGIRSVGTAAVNMCLVATGGADAYYEMGIHCWDVAGAGIIVTEAGGVLMDVTGGPFDLMSRRVIAANNRILAERIAKEIQVIPLQRDDED
partner: B3 chain
B4: F-BAR domain only protein 1 (Homo sapiens), O14526 (parent)
chain: MSYFGEHFWGEKNHGFEVLYHSVKQGPISTKELADFIRERATIEETYSKAMAKLSKLASNGTPMGTFAPLWEVFRVSSDKLALCHLELTRKLQDLIKDVLRYGEEQLKTHKKCKEEVVSTLDAVQVLSGVSQLLPKSRENYLNRCMDQERLRRESTSQKEMDKAETKTKKAAESLRRSVEKYNSARADFEQKMLDSALRFQAMEETHLRHMKALLGSYAHSVEDTHVQIGQVHEEFKQNIENVSVEMLLRKFAESKGTGREKPGPLDFEAYSAAALQEAMKRLRGAKAFRLPGLSRREREPEPPAAVDFLEPDSGTCPEVDEEGFTVRPDVTQNSTAEPSRFSSSDSDFDDEEPRKFYVHIKPAPARAPACSPEAAAAQLRATAGSLILPPGPGGTMKRHSSRDAAGKPQRPRSAPRTSSCAERLQSEEQVSKNLFGPPLESAFDHEDFTGSSSLGFTSSPSPFSSSSPENVEDSGLDSPSHAAPGPSPDSWVPRPGTPQSPPSCRAPPPEARGIRAPPLPDSPQPLASSPGPWGLEALAGGDLMPAPADPTAREGLAAPPRRLRSRKVSCPLTRSNGDLSRSLSPSPLGSSAASTALERPSFLSQTGHGVSRGPSPVVLGSQDALPIATAFTEYVHAYFRGHSPSCLARVTGELTMTFPAGIVRVFSGTPPPPVLSFRLVHTTAIEHFQPNADLLFSDPSQSDPETKDFWLNMAALTEALQRQAEQNPTASYYNVVLLRYQFSRPGPQSVPLQLSAHWQCGATLTQVSVEYGYRPGATAVPTPLTNVQILLPVGEPVTNVRLQPAATWNLEEKRLTWRLPDVSEAGGSGRLSASWEPLSGPSTPSPVAAQFTSEGTTLSGVDLELVGSGYRMSLVKRRFATGMYLVSC
B5: Transmembrane protein 140 (Homo sapiens), Q9NV12 (parent)
chain: MAGPRPRWRDQLLFMSIIVLVIVVICLMFYALLWEAGNLTDLPNLRIGFYNFCLWNEDTSTLQCHQFPELEALGVPRVGLGLARLGVYGSLVLTLFAPQPLLLAQCNSDERAWRLAVGFLAVSSVLLAGGLGLFLSYVWKWVRLSLPGPGFLALGSAQALLILLLIAMAVFPLRAERAESKLESC
partner: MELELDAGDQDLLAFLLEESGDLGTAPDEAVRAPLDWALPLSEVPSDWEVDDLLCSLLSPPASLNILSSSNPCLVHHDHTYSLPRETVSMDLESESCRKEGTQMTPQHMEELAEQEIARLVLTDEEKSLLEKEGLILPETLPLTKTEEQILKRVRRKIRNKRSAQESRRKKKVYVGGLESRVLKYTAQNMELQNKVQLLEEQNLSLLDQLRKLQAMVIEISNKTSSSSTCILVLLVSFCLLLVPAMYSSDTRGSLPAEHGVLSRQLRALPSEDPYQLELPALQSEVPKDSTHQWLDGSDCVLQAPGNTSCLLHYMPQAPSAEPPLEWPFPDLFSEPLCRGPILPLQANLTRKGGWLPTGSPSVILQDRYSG

Variants of: B1
Conditions: with rasf5_human RASSF5, Q8WWW0

Variant	effect of a mutation on the interaction
T414A	disrupting interaction strength
L8M	with no effect

Further lines, results first:

effect of a mutation on the interaction	Variant
with no effect	P592H
with no effect	R594H
disrupting interaction strength	I439V

Variants of: B2
Conditions: with cof2_human CFL2, Q9Y281

effect of a mutation on the interaction	Variant
with no effect	G139E

Variants of: B2
Conditions: with actb_human ACTB

effect of a mutation on the interaction	Variant
with no effect	G139E

Variants of: B2
Conditions: with actg_human ACTG1, P63261

effect of a mutation on the interaction	Variant
with no effect	G139E

Variants of: B3
Conditions: with impa1_human IMPA1, P29218

effect of a mutation on the interaction	Variant
with no effect	G164S

Variants of: B4
Conditions: with ptk6_human PTK6, Q13882

effect of a mutation on the interaction	Variant
with no effect	E423G

Variants of: B4
Conditions: with exos5_human EXOSC5, Q9NQT4
exos5_human EXOSC5, Q9NQT4, sequence (Q9NQT4 whole entry): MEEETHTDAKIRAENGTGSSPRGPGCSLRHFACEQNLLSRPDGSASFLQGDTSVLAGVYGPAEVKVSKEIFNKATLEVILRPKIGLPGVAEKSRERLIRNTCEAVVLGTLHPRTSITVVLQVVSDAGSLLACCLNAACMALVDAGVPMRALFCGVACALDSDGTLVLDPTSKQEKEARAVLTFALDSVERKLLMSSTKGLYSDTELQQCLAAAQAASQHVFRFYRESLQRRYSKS

effect of a mutation on the interaction	Variant
with no effect	E423G

Variants of: B5
Conditions: with creb3_human CREB3, O43889

effect of a mutation on the interaction	Variant
with no effect	A112E
